These results are taken from article PMC8315802 (2021).

The test concerns the target F-actin (skeletal muscle actin) (Oryctolagus cuniculus, UniProt P68135). Briefly: actin co-sedimentation.

B1: Rng2 (curly) 1-189 (protein)
chain: MDVNVGLSRLQSQAGAPVGTKGSNTRLAAKQRETLQAYDYLCRVDEAKKWIEECLGTDLGPTSTFEQSLRNGVVLALLVQKFQPDKLIKIFYSNELQFRHSDNINKFLDFIHGIGLPEIFHFELTDIYEGKNLPKVIYCIHALSYFLSMQDLAPPLIKSDENLSFTDEDVSIIVRRLRQSNVILPNFKA
Molecule B1 registered a Kd of 1000 nM.

Broadly, the Kd is a measure of binding affinity in units of concentration. A low value points to a tighter complex.
